Columns and labels:
Test in all cases: MST
RECQ1-C475A = RECQ1-C475A (human, UniProt P46063 1-649, C475A)
RECQ1-C453A = RECQ1-C453A (human, UniProt P46063 1-649, C453A)
RECQ1-C478A = RECQ1-C478A (human, UniProt P46063 1-649, C478A)
Chain of RECQ1-C478A (P46063 whole entry C478A): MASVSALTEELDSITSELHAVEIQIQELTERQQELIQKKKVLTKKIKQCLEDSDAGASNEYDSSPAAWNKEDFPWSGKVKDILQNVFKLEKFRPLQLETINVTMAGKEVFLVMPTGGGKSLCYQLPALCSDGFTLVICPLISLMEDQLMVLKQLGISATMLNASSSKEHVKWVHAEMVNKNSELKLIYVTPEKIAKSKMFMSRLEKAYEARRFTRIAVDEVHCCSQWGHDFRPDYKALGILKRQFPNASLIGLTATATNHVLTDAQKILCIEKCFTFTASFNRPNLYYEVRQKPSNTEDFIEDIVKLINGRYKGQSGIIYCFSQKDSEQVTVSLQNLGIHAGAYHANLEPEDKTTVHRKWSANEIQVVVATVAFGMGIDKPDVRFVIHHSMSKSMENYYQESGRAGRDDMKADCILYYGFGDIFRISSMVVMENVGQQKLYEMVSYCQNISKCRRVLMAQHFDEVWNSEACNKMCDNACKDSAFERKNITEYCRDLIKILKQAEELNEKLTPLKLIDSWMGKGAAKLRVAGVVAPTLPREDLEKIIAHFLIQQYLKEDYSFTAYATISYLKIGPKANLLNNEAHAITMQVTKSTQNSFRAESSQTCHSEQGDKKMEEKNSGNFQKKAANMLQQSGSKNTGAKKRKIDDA

Chain of RECQ1-C475A (P46063 whole entry C475A): as the sequence (P46063 whole entry C478A) above, with C475A, A478C counted along it
Chain of RECQ1-C453A (P46063 whole entry C453A): as the sequence (P46063 whole entry C478A) above, with C453A, A478C counted along it

B1: forked duplex T44/FLAP26 (dsDNA)
DNA 1: GCACTGGCCGTCGTTTTACGGTCGTGACTGGGAAAACCCTGGCG
DNA 2: TTTTTTTTTTTTTTTTTTTTTTCCAAGTAAAACGACGGCCAGTGC
Kd (RECQ1-C475A): 473 nM
Kd (RECQ1-C453A): 276 nM
Kd (RECQ1-C478A): 602 nM

Reference: article PMC4967042
